# Assay results reported in PMC3822002 (Chembiochem : a European journal of chemical biology, 2013).
# Tests used:
# [1] = target: Nedd8 activating enzyme (NAE), heterodimer of APPBP1 and Uba3 (UniProt Q13564)
# tumor growth = conditions: ref [31]–[32]; cited from earlier work
# NAE = target: T1, NAE (Homo sapiens, UniProt Q13564+Q8TBC4); conditions: covalent adduct with the C-terminus of Nedd8; ref [16], [30]; cited from earlier work
# T1 sequence (Q8TBC4 1-463): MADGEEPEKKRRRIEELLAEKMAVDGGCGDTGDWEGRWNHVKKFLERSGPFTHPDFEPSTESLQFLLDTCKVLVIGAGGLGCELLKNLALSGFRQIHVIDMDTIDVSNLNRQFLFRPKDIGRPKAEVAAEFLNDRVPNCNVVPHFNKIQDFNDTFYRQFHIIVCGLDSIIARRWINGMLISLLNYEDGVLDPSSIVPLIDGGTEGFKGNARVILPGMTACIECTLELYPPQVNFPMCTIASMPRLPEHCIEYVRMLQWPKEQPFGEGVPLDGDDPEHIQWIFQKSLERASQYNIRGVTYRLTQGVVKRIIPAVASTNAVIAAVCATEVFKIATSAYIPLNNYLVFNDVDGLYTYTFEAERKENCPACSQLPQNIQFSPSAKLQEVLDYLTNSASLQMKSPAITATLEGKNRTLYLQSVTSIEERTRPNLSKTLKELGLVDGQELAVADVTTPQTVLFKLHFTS
# T1 sequence (Q13564 1-534): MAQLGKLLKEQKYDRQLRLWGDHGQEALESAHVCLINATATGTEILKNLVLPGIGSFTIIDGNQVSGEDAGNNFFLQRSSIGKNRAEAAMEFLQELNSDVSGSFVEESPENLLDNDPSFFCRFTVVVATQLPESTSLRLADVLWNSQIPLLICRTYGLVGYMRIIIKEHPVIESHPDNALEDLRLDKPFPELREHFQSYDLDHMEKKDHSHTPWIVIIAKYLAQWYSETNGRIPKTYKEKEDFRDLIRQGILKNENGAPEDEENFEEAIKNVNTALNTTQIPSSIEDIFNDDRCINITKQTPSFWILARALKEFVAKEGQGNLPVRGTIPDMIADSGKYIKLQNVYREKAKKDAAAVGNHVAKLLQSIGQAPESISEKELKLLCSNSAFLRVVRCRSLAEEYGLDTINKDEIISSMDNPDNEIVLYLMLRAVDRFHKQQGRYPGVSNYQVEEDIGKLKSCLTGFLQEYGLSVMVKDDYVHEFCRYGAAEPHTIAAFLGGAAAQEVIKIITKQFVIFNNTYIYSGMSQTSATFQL
# CRL substrates = conditions: ref [31]–[32]; cited from earlier work
"K1/2 of the ATP-PPi exchange reaction catalysed by NAE, saturating ATP [1] [µM]",Compound,effect on tumor growth (tumor growth),NAE inhibition (NAE),effect on ubiquitination and degradation of CRL substrates (CRL substrates)
0.45,"Nedd8 variant ND20 (71ILTFGG76), N-terminal GST fusion (from UniProt Q15843 1-76)",,,
4.5,"Nedd8 variant ND4 (71RLWFGG76), N-terminal GST fusion (from UniProt Q15843 1-76)",,,

# More lines, now with the values behind:
Compound,"K1/2 of the ATP-PPi exchange reaction catalysed by NAE, saturating ATP [1] [µM]",effect on tumor growth (tumor growth),NAE inhibition (NAE),effect on ubiquitination and degradation of CRL substrates (CRL substrates)
"Nedd8 variant ND1 (71LQWFGG76), N-terminal GST fusion (from UniProt Q15843 1-76)",150,,,
NS(=O)(=O)OC[C@@H]1C[C@@H](n2ccc3c(N[C@H]4CCc5ccccc54)ncnc32)C[C@@H]1O [MLN4924],,inhibit tumor growth,potent inhibitor of NAE,block ubiquitination and degradation of CRL substrates
"wt Nedd8 (71LALRGG76), N-terminal GST fusion (from UniProt Q15843 1-76) (natural protein)",1.3,,,
